The source of these data is paper PMC3192257 (Molecular microbiology, 2011).

B2: FliW (natural protein, Bacillus subtilis (strain 3610), UniProt P96503 1-143, looked up)
chain: MIIHTKYHGQMNIKEEQIILFESGIPGFLEEKQFVILPLSEDSPFVALQSVTSENLAFIVVSPFIFFKNYEFDLDESTAELLDIDNIQDVEVMTILTMAEPFEKSTANLLAPIIVNRKNMMAKQVVLHDSSYTTKHPIGGESC
B3: 6His-Hag fusion protein (flagellin) (natural protein)
chain: not shown

The assay “FliW” deals with B2. Nature of the assay: ITC. In general terms: Isothermal titration calorimetry measures the heat released or taken up as one component is titrated into another.
The target of assay [1] is B3. Nature of the assay: ITC.

B1: His-CsrA (CsrA containing six His residues at the C-terminus) (natural protein, Bacillus subtilis, UniProt P33911 1-74, looked up)
chain: MLVLSRKINEAIQIGADIEVKVIAVEGDQVKLGIDAPKHIDIHRKEIYLTIQEENNRAAALSSDVISALSSQKK
For the molecule B1, in the assay with FliW, the Kd (commonly the free concentration of one partner at which half of the binding sites on the other are occupied at equilibrium, for simple one-to-one binding) turned out to be 20 nM; the dH was -15.4 kcal/mol; the stoichiometry N (commonly the number of molecules, sites or subunits per partner or assembly) amounted to 0.46.

Take B2: binding in assay [1] was characterised by a dissociation constant (Kd) of 140 nM.

As to B3, in the assay with FliW, the dH is -22 kcal/mol and the “stoichiometry N” value is 1.29.
